According to PMC5832863, “Solution structure and dynamics of anti-CRISPR AcrIIA4, the Cas9 inhibitor” (Scientific Reports, 2018):

How the values were obtained:
Conditions in all cases: both partners purified
[1] = biological target: T1, Streptococcus pyogenes Cas9 (a.a. 1-1368) (S. pyogenes, UniProt Q99ZW2 1-1368); assay: ITC; sgRNA-bound SpyCas9 titrated with AcrIIA4; 25 °C; one-site binding model
T1 construct: Cas9 RNA-guided endonuclease of Streptococcus pyogenes, residues 1-1368, synthetic gene in pET28b; the two states are told apart by the assay; also called SpyCas9; apo-SpyCas9; source: E. coli BL21(DE3), purified (HisTrap HP, HiTrap SP, Superdex200)
T1 sequence (Q99ZW2 whole entry, the tested form may be a part): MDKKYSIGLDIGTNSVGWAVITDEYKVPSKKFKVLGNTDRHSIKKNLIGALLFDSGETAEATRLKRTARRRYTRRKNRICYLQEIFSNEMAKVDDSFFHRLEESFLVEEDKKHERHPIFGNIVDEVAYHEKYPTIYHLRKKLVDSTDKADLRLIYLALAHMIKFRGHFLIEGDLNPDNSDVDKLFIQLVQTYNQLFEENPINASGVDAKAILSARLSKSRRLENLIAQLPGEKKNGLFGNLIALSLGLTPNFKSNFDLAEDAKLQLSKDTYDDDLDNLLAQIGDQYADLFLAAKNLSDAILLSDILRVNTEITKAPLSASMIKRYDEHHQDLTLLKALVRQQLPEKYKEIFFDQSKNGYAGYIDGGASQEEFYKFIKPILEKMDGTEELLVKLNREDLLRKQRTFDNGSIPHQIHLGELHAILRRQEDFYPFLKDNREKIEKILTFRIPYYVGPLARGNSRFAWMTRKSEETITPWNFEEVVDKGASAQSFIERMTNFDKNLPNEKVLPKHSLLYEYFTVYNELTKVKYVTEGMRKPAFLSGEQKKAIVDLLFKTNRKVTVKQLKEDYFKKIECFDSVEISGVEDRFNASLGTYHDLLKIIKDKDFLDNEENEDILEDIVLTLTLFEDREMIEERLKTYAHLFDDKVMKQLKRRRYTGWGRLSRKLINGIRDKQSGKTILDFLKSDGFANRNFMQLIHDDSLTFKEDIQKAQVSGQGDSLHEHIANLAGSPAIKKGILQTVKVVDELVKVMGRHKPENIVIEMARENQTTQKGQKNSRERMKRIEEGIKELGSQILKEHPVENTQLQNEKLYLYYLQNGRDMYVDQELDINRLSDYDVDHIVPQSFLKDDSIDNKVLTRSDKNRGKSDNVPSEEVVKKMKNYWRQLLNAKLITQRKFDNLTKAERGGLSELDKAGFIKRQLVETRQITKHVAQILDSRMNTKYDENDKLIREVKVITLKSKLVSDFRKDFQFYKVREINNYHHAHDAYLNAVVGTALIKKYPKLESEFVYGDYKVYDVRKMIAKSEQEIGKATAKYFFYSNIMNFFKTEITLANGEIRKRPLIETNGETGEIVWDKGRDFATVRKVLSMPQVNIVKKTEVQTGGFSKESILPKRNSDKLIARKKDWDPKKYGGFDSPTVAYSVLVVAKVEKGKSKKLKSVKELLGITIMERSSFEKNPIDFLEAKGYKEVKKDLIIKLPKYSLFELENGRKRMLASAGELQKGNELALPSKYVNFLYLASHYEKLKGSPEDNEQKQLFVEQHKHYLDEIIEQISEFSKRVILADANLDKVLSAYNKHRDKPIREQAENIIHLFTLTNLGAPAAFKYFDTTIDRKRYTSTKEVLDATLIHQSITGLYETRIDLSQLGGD

[2] = biological target: T1, Streptococcus pyogenes Cas9 (a.a. …); assay: ITC; apo-SpyCas9 (no sgRNA): 50 uM SpyCas9 in the cell titrated with 500 uM AcrIIA4; 25 °C; 20 mM sodium phosphate, pH 7.4, 100 mM NaCl, 5 mM BME, 0.01% NaN3; one-site binding model
[3] = biological target: T1, Streptococcus pyogenes Cas9 (a.a. …); assay: as above; remark: listed apart in the source

B1: Listeria monocytogenes anti-CRISPR protein AcrIIA4 (a.a. 1-87) (natural protein, Listeria monocytogenes (prophage), UniProt A0A247D711 1-87, looked up)
chain: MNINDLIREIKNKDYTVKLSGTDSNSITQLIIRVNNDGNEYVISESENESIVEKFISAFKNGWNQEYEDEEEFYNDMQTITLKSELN
notes: AcrIIA4, anti-CRISPR protein encoded by Listeria monocytogenes prophages, residues 1-87, synthetic gene; Cloned into a modified pBT7-N-His vector; also called 15N-AcrIIA4; 13C,15N-AcrIIA4; source: E. coli BL21star(DE3), purified (HisTrap, TEV cleavage, Superdex 75, MonoQ); not shown: His6, N-terminal, cleaved
- Kd [1]: 0.6 ± 0.1 nM
- dH [1]: -10.3 ± 0.1 kcal/mol
- stoichiometry N [2]: 1
- Kd [3]: 4.8 ± 0.15 µM
- dH [3]: -11.5 ± 0.7 kcal/mol
